# Laboratory results from the supplement of paper PMC9112550, “Optimization of the antimicrobial peptide Bac7 by deep mutational scanning” (BMC Biology, 2022).
# Tested on: Escherichia coli TOP10
# Assay: shrunken log2 fold change of peptide-encoding DNA abundance (4.5 h post-induction vs induction); higher = less antimicrobial activity (less host growth inhibition)
# Conditions: time post-induction: 4.5 h; library: site-saturation at positions 5, 18, 19, 20
# 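Also: peptides expressed intracellularly from a pBAD plasmid library in pooled LB shake-flask culture, induced with 0.3% L-arabinose, DNA abundance read by NGS, three biological replicates, DESeq2 with apeglm shrinkage.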
row,Sequence,shrunken log2 fold change
1,RRIRQRPPRLPRPRPRPQLKPRP,-0.0311
2,RRIRIRPPRLPRPRPRPNPFPRP,-0.502
3,RRIRERPPRLPRPRPRPCGSPRP,0.0206
4,RRIRRRPPRLPRPRPRPIWYPRP,0.00744
5,RRIRVRPPRLPRPRPRPCYYPRP,-0.147
6,RRIRIRPPRLPRPRPRPVLWPRP,0.199
7,RRIRRRPPRLPRPRPRPYGQPRP,0.501
8,RRIRDRPPRLPRPRPRPKDDPRP,0.0765
9,RRIRPRPPRLPRPRPRPMILPRP,-0.064
10,RRIRLRPPRLPRPRPRPKWIPRP,0.137
11,RRIRERPPRLPRPRPRPDLVPRP,-0.022
12,RRIRDRPPRLPRPRPRPQPVPRP,0.28
13,RRIRSRPPRLPRPRPRPLRHPRP,0.375
14,RRIRARPPRLPRPRPRPYRGPRP,-0.213
15,RRIRWRPPRLPRPRPRPWFQPRP,-0.125
16,RRIRGRPPRLPRPRPRPVMYPRP,0.237
17,RRIRKRPPRLPRPRPRPEWCPRP,0.278
18,RRIRSRPPRLPRPRPRPVSIPRP,-0.319
19,RRIRVRPPRLPRPRPRPEVKPRP,0.0366
20,RRIRRRPPRLPRPRPRPWPPPRP,0.514
21,RRIRWRPPRLPRPRPRPCIIPRP,-0.222
22,RRIRKRPPRLPRPRPRPSPYPRP,-0.0694
23,RRIRWRPPRLPRPRPRPNGSPRP,0.0647
24,RRIRGRPPRLPRPRPRPIMKPRP,0.227
25,RRIRERPPRLPRPRPRPKDYPRP,0.101

row,Sequence,shrunken log2 fold change
1,RRIRNRPPRLPRPRPRPKVVPRP,0.0279
2,RRIRTRPPRLPRPRPRPWFPPRP,-0.735
3,RRIRGRPPRLPRPRPRPQKRPRP,0.662
4,RRIRMRPPRLPRPRPRPLPAPRP,2.13
5,RRIRNRPPRLPRPRPRPYVHPRP,-0.253
6,RRIRHRPPRLPRPRPRPQDYPRP,-0.101
7,RRIRTRPPRLPRPRPRPDIDPRP,0.0151
8,RRIRARPPRLPRPRPRPCHMPRP,-0.0816
9,RRIRLRPPRLPRPRPRPWLCPRP,-0.0198
10,RRIRYRPPRLPRPRPRPQVNPRP,-0.0568
11,RRIRPRPPRLPRPRPRPNTHPRP,-0.00792
12,RRIRNRPPRLPRPRPRPDQNPRP,-0.017
13,RRIRLRPPRLPRPRPRPKMTPRP,-0.181
14,RRIRTRPPRLPRPRPRPHNNPRP,-0.894
15,RRIRVRPPRLPRPRPRPRPRPRP,0.62
16,RRIRVRPPRLPRPRPRPMNDPRP,-0.187
17,RRIRRRPPRLPRPRPRPLMPPRP,0.297
18,RRIRMRPPRLPRPRPRPHSFPRP,0.0932
19,RRIRYRPPRLPRPRPRPSAQPRP,-0.17
20,RRIRKRPPRLPRPRPRPLTCPRP,-0.000599
21,RRIRDRPPRLPRPRPRPYVRPRP,-0.402
22,RRIRFRPPRLPRPRPRPVFQPRP,0.071
23,RRIRHRPPRLPRPRPRPRPDPRP,0.179
24,RRIRLRPPRLPRPRPRPMSFPRP,-0.284
25,RRIRFRPPRLPRPRPRPTHIPRP,-0.496

row,Sequence,shrunken log2 fold change
1,RRIRNRPPRLPRPRPRPMTNPRP,0.454
2,RRIRFRPPRLPRPRPRPWKDPRP,-0.192
3,RRIRGRPPRLPRPRPRPQCVPRP,-0.0809
4,RRIRWRPPRLPRPRPRPTIIPRP,-0.348
5,RRIRGRPPRLPRPRPRPEHWPRP,0.378
6,RRIRWRPPRLPRPRPRPNTKPRP,-0.187
7,RRIRFRPPRLPRPRPRPEREPRP,0.292
8,RRIRRRPPRLPRPRPRPVNIPRP,-0.142
9,RRIRHRPPRLPRPRPRPFRAPRP,-0.211
10,RRIRIRPPRLPRPRPRPELVPRP,-0.105
11,RRIRERPPRLPRPRPRPSQVPRP,-0.0606
12,RRIRARPPRLPRPRPRPSHTPRP,0.162
13,RRIRARPPRLPRPRPRPPYMPRP,-0.467
14,RRIRVRPPRLPRPRPRPFAKPRP,-0.307
15,RRIRDRPPRLPRPRPRPPAIPRP,0.00372
16,RRIRCRPPRLPRPRPRPAFEPRP,0.0704
17,RRIRVRPPRLPRPRPRPWPVPRP,0.197
18,RRIRFRPPRLPRPRPRPSELPRP,-0.0817
19,RRIRSRPPRLPRPRPRPLVQPRP,-0.0825
20,RRIRLRPPRLPRPRPRPESLPRP,0.157
21,RRIRYRPPRLPRPRPRPSYCPRP,-0.407
22,RRIRDRPPRLPRPRPRPFGPPRP,-0.0754
23,RRIRGRPPRLPRPRPRPKNEPRP,0.713
24,RRIRLRPPRLPRPRPRPYPWPRP,-0.141
25,RRIRPRPPRLPRPRPRPVMVPRP,0.171

row,Sequence,shrunken log2 fold change
1,RRIRKRPPRLPRPRPRPYFDPRP,-0.383
2,RRIRNRPPRLPRPRPRPGRGPRP,0.918
3,RRIRPRPPRLPRPRPRPSCSPRP,-0.538
4,RRIRIRPPRLPRPRPRPDHWPRP,0.0629
5,RRIRERPPRLPRPRPRPTKGPRP,-0.184
6,RRIRGRPPRLPRPRPRPSNEPRP,0.131
7,RRIRLRPPRLPRPRPRPCVSPRP,-0.108
8,RRIRIRPPRLPRPRPRPFPHPRP,-0.174
9,RRIRNRPPRLPRPRPRPARHPRP,0.0771
10,RRIRDRPPRLPRPRPRPPQVPRP,0.272
11,RRIRPRPPRLPRPRPRPDLKPRP,-0.0801
12,RRIRYRPPRLPRPRPRPNHNPRP,-1.23
13,RRIRIRPPRLPRPRPRPTLTPRP,-0.13
14,RRIRTRPPRLPRPRPRPLHSPRP,0.186
15,RRIRARPPRLPRPRPRPTETPRP,1.11
16,RRIRHRPPRLPRPRPRPTELPRP,0.0215
17,RRIRQRPPRLPRPRPRPKGHPRP,-0.139
18,RRIRIRPPRLPRPRPRPTGAPRP,-0.0341
19,RRIRYRPPRLPRPRPRPLLKPRP,-0.634
20,RRIRMRPPRLPRPRPRPKEGPRP,-0.01
21,RRIRLRPPRLPRPRPRPEMWPRP,0.204
22,RRIRWRPPRLPRPRPRPIREPRP,0.411
23,RRIRVRPPRLPRPRPRPFMMPRP,0.097
24,RRIRRRPPRLPRPRPRPDPIPRP,0.227
25,RRIRGRPPRLPRPRPRPQVHPRP,0.231

row,Sequence,shrunken log2 fold change
1,RRIRERPPRLPRPRPRPQQYPRP,-0.318
2,RRIRCRPPRLPRPRPRPVLHPRP,-0.199
3,RRIRDRPPRLPRPRPRPSELPRP,-0.184
4,RRIRPRPPRLPRPRPRPGNKPRP,-0.0476
5,RRIRKRPPRLPRPRPRPTPWPRP,0.798
6,RRIRQRPPRLPRPRPRPLICPRP,-0.0973
7,RRIRLRPPRLPRPRPRPYYRPRP,-0.043
8,RRIRHRPPRLPRPRPRPMQNPRP,-0.0144
9,RRIRKRPPRLPRPRPRPTAMPRP,0.358
10,RRIRDRPPRLPRPRPRPGFWPRP,0.493
11,RRIRLRPPRLPRPRPRPFQVPRP,-0.0146
12,RRIRTRPPRLPRPRPRPMCRPRP,-0.0404
13,RRIRKRPPRLPRPRPRPTQDPRP,1.3
14,RRIRNRPPRLPRPRPRPHYFPRP,-0.0132
15,RRIRERPPRLPRPRPRPRTGPRP,0.0617
16,RRIRSRPPRLPRPRPRPDMPPRP,-0.0754
17,RRIRGRPPRLPRPRPRPEQNPRP,1.31
18,RRIRNRPPRLPRPRPRPLCPPRP,-0.141
19,RRIRNRPPRLPRPRPRPGCQPRP,-0.108
20,RRIRRRPPRLPRPRPRPPLFPRP,0.464
21,RRIRQRPPRLPRPRPRPDTIPRP,0.0406
22,RRIRERPPRLPRPRPRPWWEPRP,0.0397
23,RRIRARPPRLPRPRPRPPPIPRP,1
24,RRIRWRPPRLPRPRPRPRSMPRP,0.0304
25,RRIRQRPPRLPRPRPRPKTVPRP,-0.093

row,Sequence,shrunken log2 fold change
1,RRIRFRPPRLPRPRPRPLNKPRP,-0.522
2,RRIRVRPPRLPRPRPRPYFVPRP,0.263
3,RRIRNRPPRLPRPRPRPFQWPRP,-0.212
4,RRIRPRPPRLPRPRPRPILLPRP,-0.526
5,RRIRDRPPRLPRPRPRPIMHPRP,-0.0198
6,RRIRVRPPRLPRPRPRPTKLPRP,-0.121
7,RRIRTRPPRLPRPRPRPTLPPRP,0.149
8,RRIRGRPPRLPRPRPRPYNEPRP,-0.329
9,RRIRNRPPRLPRPRPRPTCRPRP,0.142
10,RRIRDRPPRLPRPRPRPPLVPRP,0.194
11,RRIRYRPPRLPRPRPRPKPHPRP,-0.1
12,RRIRSRPPRLPRPRPRPCCQPRP,0.0545
13,RRIRKRPPRLPRPRPRPFRTPRP,0.000407
14,RRIRKRPPRLPRPRPRPDECPRP,-0.0821
15,RRIRCRPPRLPRPRPRPKALPRP,0.0255
16,RRIRPRPPRLPRPRPRPPKAPRP,-0.0122
17,RRIRYRPPRLPRPRPRPFSTPRP,-0.0961
18,RRIRIRPPRLPRPRPRPHYYPRP,-0.413
19,RRIRRRPPRLPRPRPRPTKRPRP,0.145
20,RRIRDRPPRLPRPRPRPWVFPRP,0.289
21,RRIRERPPRLPRPRPRPGMVPRP,0.217
22,RRIRNRPPRLPRPRPRPCWEPRP,-0.0598
23,RRIRSRPPRLPRPRPRPNYVPRP,-0.906
24,RRIRSRPPRLPRPRPRPYCMPRP,-0.881
25,RRIRFRPPRLPRPRPRPFWVPRP,-0.0435
